Target: mouse uPA (Mus musculus, UniProt P06869)
Experiment: ELISA

mouse uPA, sequence (P06869 21-433): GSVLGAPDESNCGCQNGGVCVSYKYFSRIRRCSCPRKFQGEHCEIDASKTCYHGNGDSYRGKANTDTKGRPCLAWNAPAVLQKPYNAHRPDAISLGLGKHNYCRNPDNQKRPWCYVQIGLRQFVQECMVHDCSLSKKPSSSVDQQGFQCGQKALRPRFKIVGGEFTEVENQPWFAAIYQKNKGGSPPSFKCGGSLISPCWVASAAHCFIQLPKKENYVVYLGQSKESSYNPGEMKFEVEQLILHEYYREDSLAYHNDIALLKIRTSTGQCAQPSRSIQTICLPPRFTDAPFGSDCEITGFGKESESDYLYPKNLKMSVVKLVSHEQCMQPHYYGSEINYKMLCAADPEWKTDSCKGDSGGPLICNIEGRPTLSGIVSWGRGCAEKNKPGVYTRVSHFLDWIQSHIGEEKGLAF

- binding result: no binding (tested: 1 μM)
B1: U33 Fab (Fab, V domains shown)
VH: EVQLVQSGGGLVKPGRSLRLSCTASGFTFGDYAMSWVRQAPGKGLEWVGFIRSKAYGGTTEYAAVKGRFTISRDDSKSIAYLQMNSLKTEDTAVYYCIRGANWNWGQGTLVTVSS
VL: EIVLTQSPLSLPVTPGEPASISCRSSQTLMNRNGNNFLDWYLQKPGQSPQLLIYLGSNRAPGVPDRFSGSGSGTDFTLKISRVEAEDVGVYYCMQRIEFPYTFGQGTKLEIK

Reference: PMC4383704 (Cancer research, 2015)
